What was measured:
[1] = biological target: Purified human IgG (injectable IVIG) (human); assay: DBC after 0.5 M NaOH soaking relative to DBC before soaking; agarose column; human IgG
[2] = biological target: Purified human IgG (injectable IVIG) (human); assay: dynamic binding capacity at 10% breakthrough; ligand on agarose in 1 ml column; human IgG 2.5 mg/ml; 4 min residence time
[3] = biological target: Purified human IgG (injectable IVIG) (human); assay: dynamic binding capacity at 10% breakthrough after 24 h in 0.5 M NaOH; ligand on agarose column; human IgG 2.5 mg/ml
[4] = biological target: Purified human IgG (injectable IVIG) (human); assay: dynamic binding capacity at 10% breakthrough after 35 h in 0.5 M NaOH; ligand on agarose column; human IgG 2.5 mg/ml

Percentage of remaining DBC [1] [%]	DBC before NaOH soaking [2] [mg/mL]	DBC after 24 h soaking [3] [mg/mL]	DBC after 35 h soaking [4] [mg/mL]	Substance
71.2	59	50	42	Z domain with S41A/N52L mutations Ig-binding affinity ligand (designed binder)
66.1	65	53	43	Z domain with S41V mutation Ig-binding affinity ligand (designed binder)
65.1	63	52	41	Z domain with N52V mutation Ig-binding affinity ligand (designed binder)
81.5	65	59	53	Z domain with S41A/N52V mutations Ig-binding affinity ligand (designed binder)
67.2	58	47	39	Z domain with N52L mutation Ig-binding affinity ligand (designed binder)
70.9	62	52	44	Z domain with S41A mutation Ig-binding affinity ligand (designed binder)
76.5	64	56	49	Z domain with S41V/N52V mutations Ig-binding affinity ligand (designed binder)
